The labels stand for the following.
B1: Caspase-8 (Homo sapiens), Q14790 (parent)
chain: MDFSRNLYDIGEQLDSEDLASLKFLSLDYIPQRKQEPIKDALMLFQRLQEKRMLEESNLSFLKELLFRINRLDLLITYLNTRKEEMERELQTPGRAQISAYRVMLYQISEEVSRSELRSFKFLLQEEISKCKLDDDMNLLDIFIEMEKRVILGEGKLDILKRVCAQINKSLLKIINDYEEFSKERSSSLEGSPDEFSNGEELCGVMTISDSPREQDSESQTLDKVYQMKSKPRGYCLIINNHNFAKAREKVPKLHSIRDRNGTHLDAGALTTTFEELHFEIKPHDDCTVEQIYEILKIYQLMDHSNMDCFICCILSHGDKGIIYGTDGQEAPIYELTSQFTGLKCPSLAGKPKVFFIQACQGDNYQKGIPVETDSEEQPYLEMDLSSPQTRYIPDEADFLLGMATVNNCVSYRNPAEGTWYIQSLCQSLRERCPRGDDILTILTEVNYEVSNKDDKKNMGKQMPQPTFTLRKKLVFPSD
B2: Androgen receptor (Homo sapiens), P10275 (parent)
chain: MEVQLGLGRVYPRPPSKTYRGAFQNLFQSVREVIQNPGPRHPEAASAAPPGASLLLLQQQQQQQQQQQQQQQQQQQQQQQETSPRQQQQQQGEDGSPQAHRRGPTGYLVLDEEQQPSQPQSALECHPERGCVPEPGAAVAASKGLPQQLPAPPDEDDSAAPSTLSLLGPTFPGLSSCSADLKDILSEASTMQLLQQQQQEAVSEGSSSGRAREASGAPTSSKDNYLGGTSTISDNAKELCKAVSVSMGLGVEALEHLSPGEQLRGDCMYAPLLGVPPAVRPTPCAPLAECKGSLLDDSAGKSTEDTAEYSPFKGGYTKGLEGESLGCSGSAAAGSSGTLELPSTLSLYKSGALDEAAAYQSRDYYNFPLALAGPPPPPPPPHPHARIKLENPLDYGSAWAAAAAQCRYGDLASLHGAGAAGPGSGSPSAAASSSWHTLFTAEEGQLYGPCGGGGGGGGGGGGGGGGGGGGGGGEAGAVAPYGYTRPPQGLAGQESDFTAPDVWYPGGMVSRVPYPSPTCVKSEMGPWMDSYSGPYGDMRLETARDHVLPIDYYFPPQKTCLICGDEASGCHYGALTCGSCKVFFKRAAEGKQKYLCASRNDCTIDKFRRKNCPSCRLRKCYEAGMTLGARKLKKLGNLKLQEEGEASSTTSPTEETTQKLTVSHIEGYECQPIFLNVLEAIEPGVVCAGHDNNQPDSFAALLSSLNELGERQLVHVVKWAKALPGFRNLHVDDQMAVIQYSWMGLMVFAMGWRSFTNVNSRMLYFAPDLVFNEYRMHKSRMYSQCVRMRHLSQEFGWLQITPQEFLCMKALLLFSIIPVDGLKNQKFFDELRMNYIKELDRIIACKRKNPTSCSRRFYQLTKLLDSVQPIARELHQFTFDLLIKSHMVSVDFPEMMAEIISVQVPKILSGKVKPIYFHTQ

The first assay covers variants of B1. The conditions noted are these: with andr_human AR.
With MDFSRNLYDIGEQLDSEDLASLKFLSLDYIPQRKQEPIKDALMLFQRLQEKRMLEESNLSFLKELLFRINRLDLLITYLNTRKEEMERELQTPGRAQISAYRVMLYQISEEVSRSELRSFKFLLQEEISKCKLDDDMNLLDIFIEMEKRVILGEGKLDILKRVCAQINKSLLKAANDYEEFSKERSSSLEGSPDEFSNGEELCGVMTISDSPREQDSESQTLDKVYQMKSKPRGYCLIINNHNFAKAREKVPKLHSIRDRNGTHLDAGALTTTFEELHFEIKPHDDCTVEQIYEILKIYQLMDHSNMDCFICCILSHGDKGIIYGTDGQEAPIYELTSQFTGLKCPSLAGKPKVFFIQACQGDNYQKGIPVETDSEEQPYLEMDLSSPQTRYIPDEADFLLGMATVNNCVSYRNPAEGTWYIQSLCQSLRERCPRGDDILTILTEVNYEVSNKDDKKNMGKQMPQPTFTLRKKLVFPSD [I174A;I175A], the “effect of a mutation on the interaction” value is reported as “disrupting interaction strength”.

Variants of B1 are the subject of a further assay. Particulars: with andr_human AR, P10275.
In the case of MDFSRNLYDIGEQLDSEDLASLKFLSLDYIPQRKQEPIKDALMLAQRLQEKRMLEESNLSFLKELLFRINRLDLLITYLNTRKEEMERELQTPGRAQISAYRVMLYQISEEVSRSELRSFKFLLQEEISKCKLDDDMNLLDIFIEMEKRVILGEGKLDILKRVCAQINKSLLKIINDYEEFSKERSSSLEGSPDEFSNGEELCGVMTISDSPREQDSESQTLDKVYQMKSKPRGYCLIINNHNFAKAREKVPKLHSIRDRNGTHLDAGALTTTFEELHFEIKPHDDCTVEQIYEILKIYQLMDHSNMDCFICCILSHGDKGIIYGTDGQEAPIYELTSQFTGLKCPSLAGKPKVFFIQACQGDNYQKGIPVETDSEEQPYLEMDLSSPQTRYIPDEADFLLGMATVNNCVSYRNPAEGTWYIQSLCQSLRERCPRGDDILTILTEVNYEVSNKDDKKNMGKQMPQPTFTLRKKLVFPSD [F45A], the “effect of a mutation on the interaction” value is “disrupting interaction strength”.

The next assay covers variants of B2. The conditions noted are these: with casp8_human CASP8, Q14790.
Take L26A;F27A: the “effect of a mutation on the interaction” value was “disrupting interaction”.
